Square brackets hold non-standard residues; d marks the D form. Primed or numbered codes have the meaning given here. * marks the point of attachment. Dabcyl′ = quencher group on the Lys side chain, CN(C)c1ccc(/N=N/c2ccc(C(=O)*)cc2)cc1; EDANS = O=S(=O)(O)c1cccc2c(NCCN*)cccc12; pS = N[C@@H](COP(=O)(O)O)C(=O)O
T1: FRET peptide substrate Ac-EK(Dabcyl)pSPRFE(EDANS)KA-NH2 (SMILES …)
T1 peptide: Ac-EK(Dabcyl′)[pS]PRFE(EDANS)KA-NH2

B1: Catalytic domain of Par17, residues 60-156 (domain or fragment)
chain: not shown
B2: Catalytic domain of Pin1, residues 50-163 (domain or fragment, human, UniProt Q13526 50-163, looked up)
chain: GEPARVRCSHLLVKHSQSRRPSSWRQEKITRTKEEALELINGYIQKIKSGEEDFESLASQFSDCSSAKARGDLGAFSRGQMQKPFEDASFALRTGEMSGPVFTDSGIHIILRTE

Molecular target: T1, FRET peptide substrate …
Assay: cell-based or functional assay

Row | Binder | Km, FRET-based chymotrypsin-coupled peptidyl-prolyl cis–trans isomerase assay (values at 1 h) [µM]
1 | B1 | 62.5
2 | B2 | 48.2

Source: paper PMC9935730, “Expression, Purification, Structural and Functional Characterization of Recombinant Human Parvulin 17” (Molecular Biotechnology, 2022)
